Test results from patent US20200317768A1 (published 2020).
Substitutions are numbered along the chain they refer to. Numbers in names are those of the source.

T1: cynomolgus monkey FcγRIIa3 extracellular domain with C-terminal His-tag (cynomolgus monkey)
T1 construct: also called cyno FcgRIIa3; cynoFcγRIIa3
T1 chain: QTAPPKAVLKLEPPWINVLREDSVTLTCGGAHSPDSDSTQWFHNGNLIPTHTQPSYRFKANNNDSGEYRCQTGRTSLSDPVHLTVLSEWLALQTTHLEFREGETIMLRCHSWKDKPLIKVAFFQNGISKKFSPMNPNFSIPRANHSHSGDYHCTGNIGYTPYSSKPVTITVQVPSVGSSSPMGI

T2: cynomolgus monkey FcγRIIb extracellular domain with C-terminal His-tag (cynomolgus monkey)
T2 construct: also called cyno FcgRIIb; cynoFcγRIIb
T2 chain: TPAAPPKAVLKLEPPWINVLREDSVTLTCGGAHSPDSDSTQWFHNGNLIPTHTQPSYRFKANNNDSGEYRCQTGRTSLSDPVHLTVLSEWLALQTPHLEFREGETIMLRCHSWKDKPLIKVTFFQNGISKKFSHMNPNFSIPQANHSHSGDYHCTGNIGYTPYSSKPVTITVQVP

T3: human FcγRIIaH extracellular domain with C-terminal His-tag (human, UniProt P12318 34-217)
T3 construct: also called human FcgRIIaH; FcγRIIa (type H)
T3 sequence: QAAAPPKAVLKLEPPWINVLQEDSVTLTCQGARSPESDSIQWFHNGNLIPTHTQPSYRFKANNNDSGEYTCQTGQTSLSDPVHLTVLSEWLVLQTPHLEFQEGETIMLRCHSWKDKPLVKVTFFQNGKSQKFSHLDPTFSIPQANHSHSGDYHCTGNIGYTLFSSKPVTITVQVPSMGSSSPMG

T4: human FcγRIIaR extracellular domain with C-terminal His-tag (human, UniProt P12318 34-217)
T4 construct: also called human FcgRIIaR; FcγRIIa (type R)
T4 chain: T3 sequence with H134R

T5: cynomolgus monkey FcγRIIa2 extracellular domain with C-terminal His-tag (cynomolgus monkey)
T5 construct: also called cyno FcgRIIa2; cynoFcγRIIa2
T5 chain: T1 chain with I127K, K130N, P133H, R142Q

T6: human FcγRIIb extracellular domain with C-terminal His-tag (human, UniProt P31994 43-217)
T6 construct: also called human FcgRIIb
T6 sequence: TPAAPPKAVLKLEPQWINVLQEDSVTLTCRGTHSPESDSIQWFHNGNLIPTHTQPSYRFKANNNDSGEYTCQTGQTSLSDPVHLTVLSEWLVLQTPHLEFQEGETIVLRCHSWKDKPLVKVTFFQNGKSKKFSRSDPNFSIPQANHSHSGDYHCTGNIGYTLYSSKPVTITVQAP

T7: cynomolgus monkey FcγRIIa1 extracellular domain with C-terminal His-tag (cynomolgus monkey)
T7 construct: also called cyno FcgRIIa1; cynoFcγRIIa1
T7 chain: T1 chain with T95P, A121T, S128A, P133H, N135D

T8: cynomolgus monkey FcγRIIIaS extracellular domain with C-terminal His-tag (cynomolgus monkey, UniProt Q8SPW2 21-206 at identity 1.00))
T8 construct: also called cyno FcgRIIIaS; cynoFcγRIIIaS
T8 chain: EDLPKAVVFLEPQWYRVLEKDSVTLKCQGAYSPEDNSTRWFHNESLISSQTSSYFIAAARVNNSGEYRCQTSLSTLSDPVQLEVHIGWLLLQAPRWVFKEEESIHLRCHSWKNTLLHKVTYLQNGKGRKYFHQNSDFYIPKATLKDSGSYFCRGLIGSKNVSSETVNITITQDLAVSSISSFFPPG

B1: M103205H795-MY538/M103202L889-SK1 (A231G/L234W/G236T/H268D/Q295L/A330K) (antibody, human IgG1, kappa)
heavy: QVTLKESGPVLVKPTETLTLTCTVSGIDLSHDDISWVRQAPGKGLEWVGIISYAGSTYYASWAKGRLTISKDTSKNQVVLTMTNMDPVDTATYYCARGVPAYSHGGDLWGQGTLVTVSSASTKGPSVFPLAPSSKSTSGGTAALGCLVKDYFPEPVTVSWNSGALTSGVHTFPAVLQSSGLYSLSSVVTVPSSSLGTQTYICNVNHKPSNTKVDKKVEPKSCDKTHTCPPCPGPEWLTGPSVFLFPPKPKDTLMISRTPEVTCVVVDVSDEDPEVKFNWYVDGVEVHNAKTKPREELYNSTYRVVSVLTVLHQDWLNGKEYKCKVSNKALPKPIEKTISKAKGQPREPQVYTLPPSREEMTKNQVSLTCLVKGFYPSDIAVEWESNGQPENNYKTTPPVLDSDGSFFLYSKLTVDKSRWQQGNVFSCSVMHEALHNHYTQKSLSLSP
light: DIVMTQSPATLSLSPGERATLSCTSSQSVYHANWLSWFQQKPGQPPKLLIYWASTLAYGVPSRFSGSGSGTDFTLTISSLQPEDAATYYCAGGYGGGRYAFGQGTKVEIKRTVAAPSVFIFPPSDEQLKSGTASVVCLLNNFYPREAKVQWKVDNALQSGNSQESVTEQDSKDSTYSLSSTLTLSKADYEKHKVYACEVTHQGLSSPVTKSFNRGEC
notes: Substitutions introduced into M103205H795-SG1, expressed with M103202L889-SK1 as light chain; EU numbering
B2: M103205H795-MY537/M103202L889-SK1 (antibody, human IgG1, kappa)
heavy: B1 heavy with S241V
light: B1 light
notes: as for B1
B3: M103205H795-MY535/M103202L889-SK1 (antibody, human IgG1, kappa)
heavy: B1 heavy with L297Q
light: B1 light
notes: as for B1

Target: T1, cynomolgus monkey FcγRIIa3 …
Assay: SPR (BIACORE), antibody captured, FcgR analyte
Protocol: (§1) The kinetic analysis of interactions between these antibodies and FcγR was carried out using BIACORE® T200 or BIACORE® 4000 (GE Healthcare). HBS-EP+ (GE Healthcare) was used as the running buffer, and the measurement temperature was set to 25° C. A chip produced by immobilizing Protein A. Protein A/G or mouse anti-human IgG kappa light chain (BD Biosciences) onto a Series S Sensor Chip CM4 or CM5 (GE Healthcare) by the amine-coupling method was used. […] After the measurement, the antibody captured on the chip was washed off by allowing reaction with 10 mM glycine-HCl, pH1.5 and 25 mM NaOH so that the chip was regenerated and used repeatedly. The sensorgrams obtained as measurement results were analyzed by the 1:1 Langmuir binding model using the BIACORE® Evaluation Software to calculate the binding rate constant ka (L/mol/s) and dissociation rate constant kd (l/s), and the dissociation constant KD (mol/L) was calculated from these values. […] Regarding such interactions, KD values were calculated using the following 1:1 binding model described in BIACORE® T100 Software Handbook BR1006-48 Edition AE.
(§2) The behavior of interacting molecules according to the 1:1 binding model on BIACORE® can be described by Equation 1: Req=C·R max/(KD+C)+RI, wherein, Req is a plot of steady-state binding levels to analyte concentration. C is concentration, RI is bulk refractive index contribution in the sample, and Rmax is analyte binding capacity of the surface. When this equation is rearranged, KD can be expressed as Equation 2: KD=C·Rmax/(Req−RI)−C. KD can be calculated by substituting the values of Rmax, RI, and C into Equation 1 or Equation 2. From the current measurement conditions, RI=0, C=2 μmol/L can be used.

| Kd [nM] | Binder |
| --- | --- |
| 3000 | B1 |
| 1400 | B2 |
| 3000 | B3 |

Target: T2, cynomolgus monkey FcγRIIb extracellular …
Assay: SPR (BIACORE), antibody captured, FcgR analyte
Protocol: as §1, §2

| Kd [nM] | Binder |
| --- | --- |
| 280 | B1 |
| 320 | B2 |
| 410 | B3 |

Target: T3, human FcγRIIaH extracellular domain …
Assay: SPR (BIACORE), antibody captured, FcgR analyte
Protocol: as §1, §2

| Kd [nM] | Binder |
| --- | --- |
| 250 | B1 |
| 280 | B2 |
| 390 | B3 |

Target: T4, human FcγRIIaR extracellular domain …
Assay: SPR (BIACORE), antibody captured, FcgR analyte
Protocol: as §1, §2

| Kd [nM] | Binder |
| --- | --- |
| 620 | B1 |
| 370 | B2 |
| 640 | B3 |

Target: T5, cynomolgus monkey FcγRIIa2 …
Assay: SPR (BIACORE), antibody captured, FcgR analyte
Protocol: as §1, §2

| Kd [nM] | Binder |
| --- | --- |
| 1100 | B1 |
| 1100 | B2 |
| 1400 | B3 |

Target: T6, human FcγRIIb extracellular domain with …
Assay: SPR (BIACORE), antibody captured, FcgR analyte
Protocol: as §1, §2

| Kd [nM] | Binder |
| --- | --- |
| 1300 | B1 |
| 1000 | B2 |
| 1900 | B3 |

Target: T7, cynomolgus monkey FcγRIIa1 …
Assay: SPR (BIACORE), antibody captured, FcgR analyte
Protocol: as §1, §2

| Kd [nM] | Binder |
| --- | --- |
| 960 | B1 |
| 1200 | B2 |
| 1300 | B3 |

Target: T8, cynomolgus monkey FcγRIIIaS …
Assay: SPR (BIACORE), antibody captured, FcgR analyte
Protocol: as §1, §2

| Kd [nM] | Binder |
| --- | --- |
| 2400 | B1 |
| 1500 | B2 |
| 2100 | B3 |

Target: T9, human FcγRIIIaV extracellular domain with C-terminal His-tag (human, UniProt P08637 17-208)
T9 construct: also called human FcgRIIIaV
T9 sequence (P08637 17-208 F176V): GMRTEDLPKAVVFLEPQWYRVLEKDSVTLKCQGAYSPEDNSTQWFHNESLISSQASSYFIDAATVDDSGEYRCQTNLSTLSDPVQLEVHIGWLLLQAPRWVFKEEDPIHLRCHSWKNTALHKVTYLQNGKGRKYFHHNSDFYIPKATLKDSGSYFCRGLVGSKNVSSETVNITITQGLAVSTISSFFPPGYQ
Assay: SPR (BIACORE), antibody captured, FcgR analyte
Protocol: as §1, §2

| Kd [nM] | Binder |
| --- | --- |
| 5700 | B1 |
| 3300 | B2 |
| 3200 | B3 |
